Laboratory results reported in article PMC9408373 (2022).

Legend:
[1] = target: T1, human CDC42 (aa 1-178), wild type (human, UniProt P60953 1-178); assay: FP; mGDP-bound CDC42
[2] = target: T1, human CDC42 (aa 1-178), wild type; assay: FP; mGppNHp-bound CDC42

T1 sequence (P60953 1-178): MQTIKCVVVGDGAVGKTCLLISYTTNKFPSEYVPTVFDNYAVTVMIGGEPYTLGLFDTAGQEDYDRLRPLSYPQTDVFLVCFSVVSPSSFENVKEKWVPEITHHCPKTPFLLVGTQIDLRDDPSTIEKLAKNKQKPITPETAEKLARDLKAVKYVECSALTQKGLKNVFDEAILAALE

| Binder | Kd [1] [µM] | Kd [2] [µM] |
| --- | --- | --- |
| human IQGAP1 GRD1 (aa 962-1345) (domain or fragment) SKEKREKLEAYQHLFYLLQTNPTYLAKLIFQMPQNKSTKFMDSVIFTLYNYASNQREEYLLLRLFKTALQEEIKSKVDQIQEIVTGNPTVIKMVVSFNRGARGQNALRQILAPVVKEIMDDKSLNIKTDPVDIYKSWVNQMESQTGEASKLPYDVTPEQALAHEEVKTRLDSSIRNMRAVTDKFLSAIVSSVDKIPYGMRFIAKVLKDSLHEKFPDAGEDELLKIIGNLLYYRYMNPAIVAPDAFDIIDLSAGGQLTTDQRRNLGSIAKMLQHAASNKMFLGDNAHLSIINEYLSQSYQKFRRFFQTACDVPELQDKFNVDEYSDLVTLTKPVIYISIGEIINTHTLLLDHQDAIAPEHNDPIHELLDDLGEVPTIESLIGESS | 150 | 152 |
| human IQGAP2 GRD2 (aa 875-1246) (domain or fragment) SKERRKTLETYQQLFYLLQTNPLYLAKLIFQMPQNKSTKFMDTVIFTLYNYASNQREEYLLLKLFKTALEEEIKSKVDQVQDIVTGNPTVIKMVVSFNRGARGQNTLRQLLAPVVKEIIDDKSLIINTNPVEVYKAWVNQLETQTGEASKLPYDVTTEQALTYPEVKNKLEASIENLRRVTDKVLNSIISSLDLLPYGLRYIAKVLKNSIHEKFPDATEDELLKIVGNLLYYRYMNPAIVAPDGFDIIDMTAGGQINSDQRRNLGSVAKVLQHAASNKLFEGENEHLSSMNNYLSETYQEFRKYFKEACNVPEPEEKFNMDKYTDLVTVSKPVIYISIEEIISTHSLLLEHQDAIAPEKNDLLSELLGSLGE | 55 |  |
| human IQGAP1 C794 (aa 863-1657) (domain or fragment) DPPMVVVRKFVHLLDQSDQDFQEELDLMKMREEVITLIRSNQQLENDLNLMDIKIGLLVKNKITLQDVVSHSKKLTKKNKEQLSDMMMINKQKGGLKALSKEKREKLEAYQHLFYLLQTNPTYLAKLIFQMPQNKSTKFMDSVIFTLYNYASNQREEYLLLRLFKTALQEEIKSKVDQIQEIVTGNPTVIKMVVSFNRGARGQNALRQILAPVVKEIMDDKSLNIKTDPVDIYKSWVNQMESQTGEASKLPYDVTPEQALAHEEVKTRLDSSIRNMRAVTDKFLSAIVSSVDKIPYGMRFIAKVLKDSLHEKFPDAGEDELLKIIGNLLYYRYMNPAIVAPDAFDIIDLSAGGQLTTDQRRNLGSIAKMLQHAASNKMFLGDNAHLSIINEYLSQSYQKFRRFFQTACDVPELQDKFNVDEYSDLVTLTKPVIYISIGEIINTHTLLLDHQDAIAPEHNDPIHELLDDLGEVPTIESLIGESSGNLNDPNKEALAKTEVSLTLTNKFDVPGDENAEMDARTILLNTKRLIVDVIRFQPGETLTEILETPATSEQEAEHQRAMQRRAIRDAKTPDKMKKSKSVKEDSNLTLQEKKEKIQTGLKKLTELGTVDPKNKYQELINDIARDIRNQRRYRQRRKAELVKLQQTYAALNSKATFYGEQVDYYKSYIKTCLDNLASKGKVSKKPREMKGKKSKKISLKYTAARLHEKGVLLEIEDLQVNQFKNVIFEISPTEEVGDFEVKAKFMGVQMETFMLHYQDLLQLQYEGVAVMKLFDRAKVNVNLLIFLLNKKFYGK | 64 |  |
| human IQGAP2 C795 (aa 780-1575) (domain or fragment) PLTVIRKFVYLLDQSDLDFQEELEVARLREEVVTKIRANQQLEKDLNLMDIKIGLLVKNRITLEDVISHSKKLNKKKGGEMEILNNTDNQGIKSLSKERRKTLETYQQLFYLLQTNPLYLAKLIFQMPQNKSTKFMDTVIFTLYNYASNQREEYLLLKLFKTALEEEIKSKVDQVQDIVTGNPTVIKMVVSFNRGARGQNTLRQLLAPVVKEIIDDKSLIINTNPVEVYKAWVNQLETQTGEASKLPYDVTTEQALTYPEVKNKLEASIENLRRVTDKVLNSIISSLDLLPYGLRYIAKVLKNSIHEKFPDATEDELLKIVGNLLYYRYMNPAIVAPDGFDIIDMTAGGQINSDQRRNLGSVAKVLQHAASNKLFEGENEHLSSMNNYLSETYQEFRKYFKEACNVPEPEEKFNMDKYTDLVTVSKPVIYISIEEIISTHSLLLEHQDAIAPEKNDLLSELLGSLGEVPTVESFLGEGAVDPNDPNKANTLSQLSKTEISLVLTSKYDIEDGEAIDSRSLMIKTKKLIIDVIRNQPGNTLTEILETPATAQQEVDHATDMVSRAMIDSRTPEEMKHSQSMIEDAQLPLEQKKRKIQRNLRTLEQTGHVSSENKYQDILNEIAKDIRNQRIYRKLRKAELAKLQQTLNALNKKAAFYEEQINYYDTYIKTCLDNLKRKNTRRSIKLDGKGEPKGAKRAKPVKYTAAKLHEKGVLLDIDDLQTNQFKNVTFDIIATEDVGIFDVRSKFLGVEMEKVQLNIQDLLQMQYEGVAVMKMFDKVKVNVNLLIYLLNKKFYGK | 113 |  |
